We go through 21 variants from the RNAGym collection of RNA variant scans (doi:10.1073/pnas.2313332121).

The chains are these.
B1: TPR t1 (parent)
chain: GACCAAUCUGCCCUCAGAGCUCGAGAACAUCUUCGGAUGCAGAGGAGGCAGGCUUCGGUGGCGCGAUAGCGCCAACGUCCUCAACCUCCAAUGCAUCCCACCACAUGAUGAUGCCUGAAGAGCCUUGGUUUUUUG

In the series the parent is B1. Put plainly: polymerase ribozyme fitness, log enrichment relative to wild type (log ratio); higher = more active; in vitro selection for triplet polymerase activity. The gist of the method: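 Frozen incubation at −7 °C formed the core of a single, triplicate in vitro selection round applied to PCR-built, transcribed mutant libraries of each subunit of a heterodimeric triplet polymerase ribozyme. Extended constructs were gel-excised, captured with streptavidin beads and amplified by RT-PCR, and input and output libraries were Illumina-sequenced with a filter of ≥10 input reads and ≥1 read per output. Fitness is the logarithm of genotype enrichment relative to wild-type enrichment, with inverse-variance-weighted replicate averaging, and the logarithm is base 2.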
As to GACCAAUCUGCCCUCAGAGCUCGAGAACAUCUUCGGAUGCAGAGGAGGCAGUCUUCGGUGGCGCGAUAGCGCCAACGUCCUCAACCUCCAAUGCAUCCCACCACAUGAUGAUGCCUGAAGAGCAUUGGUUUUUUG, the “polymerase ribozyme fitness (log ratio)” value turned out to be 0.485.

As for GACCAAUCUGCCCUCAGAGCUCGAGAACAUCUUCGGAUGCAGAGGAGGCAGUCUCCGGUGGCGCGAUAGCGCCAACGUUCUCAACCUCCAAUGCAUCCCACCACAUGAUGAUGCCUGAAGAGCCUUGGUUUUUUG, the “polymerase ribozyme fitness (log ratio)” value is -0.237.

With GACCAAUCUGCCCUCAGAGCUCGAGAACAUCUUCGGAUGCAGAGGAGGCAGUCUUCGGUGGCGCGAUAGCGUCAACGUCCUCAACCUCCAAUGCAUCCCACCACAUGAUGAUGCCUGAAGCGCCUUGGUUUUUUG, the “polymerase ribozyme fitness (log ratio)” value worked out at 0.242.

With GACCAAUCUGCCCUCAGAGCUCGAGAACAUCUUCGGAUGCAGAGGAGGCAGUCUUCGGUGGCGCGAUAGCGCUAACGUCCUCAACCUCCAAUGCAUCCCACCACAUGAUGAUGCCUGAAGAGCCUUGGUUUUUUG, the “polymerase ribozyme fitness (log ratio)” value was -0.9.

On to GACCAAUCUGCCCUCAGAGCUCGAGAACAUCUUCGGAUGCAGAGGAGGCAGUCUUCGGUGGCGCGAGAGCGCCAACGUCCUCAACCUCCAAUGCAUCCCAUCACAUGAUGAUGCCUGAACAGCCUUGGUUUUUUG, for which the “polymerase ribozyme fitness (log ratio)” value was -6.94.

Turning to GACCAAUCUGCCCUCAGAGCUCGAGAACAUCUUCGGAUGCAGAGGAGGCAGUCUUCGGUGGCGCGAUAGCGCCAACGUGCUCGACCUCCAAUGCAUCCCACCACAUGAUGAUGCCUGAAGGGCCUUGGUUUAUUG, the “polymerase ribozyme fitness (log ratio)” value is 0.919.

GACCAAUCUGCCCUCAGAGCUCGAGAACAUCUUCGGAUGCAGAGGAGGCAGUCUUCGGUGGCGCGAUAGCGCCAACGUCCUCAACCUCCAAUGCAUCCCACCAAAUGAUGAUGCCUGAAGAGCCUUGGUUUUUUG: the “polymerase ribozyme fitness (log ratio)” value is -2.28.

Regarding GACCAAUCUGCCCUCAGAGCUCGAGAACAUCUUCGGAUGCAGAGGAGGCAGUCUUCGGUGGCGCGAUAGCGCCAACGUCCUUAACCUCCAAUGCAUCCCACCACAUGAUUAUGCCUGAAGAGCCUUGGUUUUUUG, the “polymerase ribozyme fitness (log ratio)” value was -2.9.

Take GACCAAUCUGCCCUCAGAGCUCGAGAACAUCUUCGGAUGCAGAGGAGGCAGUCUUCGCUGGCGCGAUAGCGCCAACGUUCUCAACCUCCAAUGCAUCCCACCACAUGAUGAUGCCUGAAGAGCCUUGGUUUUUUG: the “polymerase ribozyme fitness (log ratio)” value was -0.312.

As to GACCAAUCUGCCCUCAGAGCUCGAGAACAUCUUCGGAUGCAGAGGAGGCAGUCUUCGGUGGCGCGAUAGCGACAACGUCCUCAAACUCCAAUGCAUCCCACCACAUGAUGAUGCCUGAAGAGCCUUGGUUUUUUG, the “polymerase ribozyme fitness (log ratio)” value was -1.3.

With GACCAAUCUGCCCUCAGAGCUCGAGAACAUCUUCGGAUGCAGAGGAGGCAGUCUGCGGUGGCGCGAUAGCGCCAACGUCCUAAACCUCGAAUGCAUCCCACCACAUGAUGAUGCCUGAAGAGCCUUGGUUUUUUG, the “polymerase ribozyme fitness (log ratio)” value was -3.64.

In the case of GACCAAUCUGCCCUCAGAGCUCGAGAACAUCUUCGGAUGCAGAGGAGGCAGUCUUCGGUGGCUCGAUAGCGCCAACGUCCUCAACCUCCAAUGCAUCCCACCACAUGAUGAUGCCUGAGUUGCCUUGGUUUUUUG, the “polymerase ribozyme fitness (log ratio)” value was -0.023.

For GACCAAUCUGCCCUCAGAGCUCGAGAACAUCUUCGGAUGCAGAGGAGGCAGUCUUCGGUGGCGCGAUAGCGGCAACGUCCUCAACCUCCAAUGCAUCCCACCACAUGAUGAUGCCUGAAGGGCCUUGGUUUUUUG, the “polymerase ribozyme fitness (log ratio)” value stood at 1.49.

As to GACCAAUCUGCCCUCAGAGCUCGAGAACAUCUUCGGAUGCAGAGGAGGCAGUCUUCGGUGGCGUGAUAGCGCCAACGUCCUCAACCUCCAAUGCAUCCCACCACAUGAUGAUGCCUGAAGAGCCUUGGUUUAUUG, the “polymerase ribozyme fitness (log ratio)” value was -1.1.

With GACCAAUCUGCCCUCAGAGCUCGAGAACAUCUUCGGAUGCAGAGGAGGCAGUCUUCGGUGGCGCGAUAGCGACAACGUCCUCAACCUCCAAUGCAUCCCACCAUAUGAUGGUACCUGAAGAGCCUUGGUUUUUUG, the “polymerase ribozyme fitness (log ratio)” value is -2.25.

Take GACCAAUCUGCCCUCAGAGCUCGAGAACAUCUUCGGAUGCAGAGGAGGCAGUCUUCGGUGGCGCGAUAGCGCUAACGUCCUCUACCUCCAAUGCAUCCCACCACAUGAUGAUGCCUGAAAAGCUUUGGUUUUUUG: the “polymerase ribozyme fitness (log ratio)” value is -0.229.

In the case of GACCAAUCUGCCCUCAGAGCUCGAGAACAUCUUCGGAUGCAGAGGAGGCAGUCUUCGGUGGCGCGAUAGCGACAACGUCCUCAAACUCCAAUGCAUCCCACCACAAGAUUAUGCCUGAAGAGCCUUGGUUUUUUG, the “polymerase ribozyme fitness (log ratio)” value is -3.08.

Regarding GACCAAUCUGCCCUCAGAGCUCGAGAACAUCUUCGGAUGCAGAGGAGGCAGUCUUCGGUGGCGCGAUAGCGCCAACGUCCUCAACCUCCAAUGCAUCCCACCACAUGAUGAUGCCUCAAGAGCCUUGGUUUUUUG, the “polymerase ribozyme fitness (log ratio)” value was -5.35.

Consider GACCAAUCUGCCCUCAGAGCUCGAGAACAUCUUCGGAUGCAGAGGAGGCAGUCUUCGGUGGCGCGAUAGCGCCAACGUCCUCAACCUCCAAUGCAUCCCACCACAUGAUGAUGCCUUAAGAGCCUUGGUUUUUUG, for which the “polymerase ribozyme fitness (log ratio)” value is -3.39.

In the case of GACCAAUCUGCCCUCAGAGCUCGAGAACAUCUUCGGAUGCAGAGGAGGCAGUCUUCGGUGGCGCGAUAGCGCCAACGUCCUGAACCUCCAAUGCAUCCCACCACAUGAUGAUGCCUGAAGAGCCUUGGUUUUUUG, the “polymerase ribozyme fitness (log ratio)” value was -2.18.

For the variant GACCAAUCUGCCCUCAGAGCUCGAGAACAUCUUCGGAUGCAGAGGAGGCAGUCUUCGGUGGCGCGAUAGGGUCAACGUCCUCAACCUCCAAUGCAUCCCACCACAUGAUGAUGCCUGAAGAGCCUUGGUUUUUUG, the “polymerase ribozyme fitness (log ratio)” value is -3.48.
